From US20230049152A1 (Genentech, published 2023)
Each block holds one binder with its values, some of them ahead of it.

Assays:
P18A = biological target: T1, P18A; test: flow cytometry, HEK293 transfected with hCCR8 P18A with C-terminal FLAG; sheet prints [huCCR8]=0.02 ug/ml
T1 construct: single alanine mutant of hCCR8; also called hCCR8 P18A
T1 receptor chain: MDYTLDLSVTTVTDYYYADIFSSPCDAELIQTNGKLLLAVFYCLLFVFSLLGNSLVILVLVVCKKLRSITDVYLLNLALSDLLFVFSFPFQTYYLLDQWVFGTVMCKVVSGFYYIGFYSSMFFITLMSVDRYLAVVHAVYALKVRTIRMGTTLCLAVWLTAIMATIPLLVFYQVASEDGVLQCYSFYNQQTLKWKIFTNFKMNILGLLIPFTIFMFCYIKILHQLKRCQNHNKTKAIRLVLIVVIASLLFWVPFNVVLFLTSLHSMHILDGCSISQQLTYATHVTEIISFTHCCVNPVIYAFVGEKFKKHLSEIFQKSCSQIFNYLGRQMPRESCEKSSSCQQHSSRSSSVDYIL

F21A = biological target: T2, F21A; test: flow cytometry, HEK293 transfected with hCCR8 F21A with C-terminal FLAG; sheet prints [huCCR8]=0.02 ug/ml
T2 construct: single alanine mutant of hCCR8; also called hCCR8 F21A
T2 receptor chain: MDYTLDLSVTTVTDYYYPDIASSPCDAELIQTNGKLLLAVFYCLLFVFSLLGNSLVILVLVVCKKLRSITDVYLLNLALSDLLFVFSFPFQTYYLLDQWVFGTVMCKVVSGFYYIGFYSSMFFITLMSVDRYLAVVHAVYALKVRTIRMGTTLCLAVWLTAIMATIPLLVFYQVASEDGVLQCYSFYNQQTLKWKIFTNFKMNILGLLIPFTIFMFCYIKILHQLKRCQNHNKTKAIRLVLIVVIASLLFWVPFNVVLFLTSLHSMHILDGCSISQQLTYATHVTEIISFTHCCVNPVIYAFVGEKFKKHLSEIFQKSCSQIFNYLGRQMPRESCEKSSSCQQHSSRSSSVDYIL
Method: (§1) FIGS. 16A-16B depict the epitope maps for hu.Ab5.H13L1 (FIG. 16A) and hu.Ab4.H12L3 (FIG. 16B) mAbs.
(§2) To epitope map fucosylated hu.Ab5.H13L1, the binding to alanine point mutations in human CCR8 was analyzed by flow cytometry.

hCCR8 D2A = biological target: T3, hCCR8 D2A (human, UniProt P51685 1-355); test: flow cytometry, HEK293 transfected with hCCR8 D2A with C-terminal FLAG
T3 construct: alanine point mutant on transfected HEK 293 cells

T11A = biological target: T4, T11A; test: flow cytometry, HEK293 transfected with hCCR8 T11A with C-terminal FLAG; sheet prints [huCCR8]=0.02 ug/ml
T4 construct: single alanine mutant of hCCR8; also called hCCR8 T11A
T4 receptor chain: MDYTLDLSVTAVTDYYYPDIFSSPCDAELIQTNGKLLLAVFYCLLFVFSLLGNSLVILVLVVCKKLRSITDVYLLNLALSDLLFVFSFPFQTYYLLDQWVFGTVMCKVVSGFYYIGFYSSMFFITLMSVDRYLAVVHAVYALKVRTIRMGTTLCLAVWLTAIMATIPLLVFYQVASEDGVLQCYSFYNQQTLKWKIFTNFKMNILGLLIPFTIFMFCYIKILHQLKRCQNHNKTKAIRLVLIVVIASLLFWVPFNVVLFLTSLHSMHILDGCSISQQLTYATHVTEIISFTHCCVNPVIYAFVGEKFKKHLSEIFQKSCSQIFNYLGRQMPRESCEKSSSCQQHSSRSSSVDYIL
Method: as §1, §2

S23A = biological target: T5, S23A; test: flow cytometry, HEK293 transfected with hCCR8 S23A with C-terminal FLAG; sheet prints [huCCR8]=0.02 ug/ml
T5 construct: single alanine mutant of hCCR8; also called hCCR8 S23A
T5 receptor chain: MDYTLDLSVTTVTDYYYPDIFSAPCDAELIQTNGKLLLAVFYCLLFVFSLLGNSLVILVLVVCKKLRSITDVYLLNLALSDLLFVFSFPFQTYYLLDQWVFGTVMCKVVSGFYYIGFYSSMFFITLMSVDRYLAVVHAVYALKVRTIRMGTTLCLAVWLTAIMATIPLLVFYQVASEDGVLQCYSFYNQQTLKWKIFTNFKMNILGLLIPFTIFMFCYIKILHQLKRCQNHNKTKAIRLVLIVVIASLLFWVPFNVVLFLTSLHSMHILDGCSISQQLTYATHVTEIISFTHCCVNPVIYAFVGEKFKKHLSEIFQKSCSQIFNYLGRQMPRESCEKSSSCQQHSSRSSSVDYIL
Method: as §1, §2

T4A = biological target: T6, T4A; test: flow cytometry, HEK293 transfected with hCCR8 T4A with C-terminal FLAG; sheet prints [huCCR8]=0.02 ug/ml
T6 construct: single alanine mutant of hCCR8; also called hCCR8 T4A
T6 receptor chain: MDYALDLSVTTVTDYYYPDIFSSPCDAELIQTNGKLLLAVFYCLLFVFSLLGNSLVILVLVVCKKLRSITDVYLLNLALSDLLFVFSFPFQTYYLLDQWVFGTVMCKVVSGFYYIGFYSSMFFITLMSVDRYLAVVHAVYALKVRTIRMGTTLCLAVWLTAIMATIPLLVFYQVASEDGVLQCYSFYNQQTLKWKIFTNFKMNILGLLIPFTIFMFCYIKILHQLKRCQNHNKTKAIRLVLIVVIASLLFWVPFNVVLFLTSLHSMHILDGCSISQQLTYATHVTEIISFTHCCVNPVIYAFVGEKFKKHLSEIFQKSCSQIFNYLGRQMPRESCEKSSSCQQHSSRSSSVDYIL
Method: as §1, §2

human CCR8 [1] = biological target: T7, human CCR8 (human, UniProt P51685 1-355); test: flow cytometry, CHO-huCCR8.Gna15 cells, relative to rb.Ab4
T7 construct: the assay field says which; also called hCCR8; huCCR8
Method: Evaluation of CCR8 binding of the humanized variants with a hIgG1 Fc involved screening by flow cytometry, and comparing the relative EC₅₀ and MFI on human CCR8 CHO cells to the parental rabbit antibodies. Specifically, stable CHO-huCCR8.Gna15 cells were stained with various concentrations (starting from 10 ug/ml or 66.66 nM, 1:4 serial dilution for total 8 concentration points) of Ab4 and Ab5 variants at 4° C. for 30 minutes, then washed twice with FACS buffer (PBS with 0.5% BSA and 0.2 mM EDTA) and followed by staining with AF647-anti-hIgG at 4° C. for 15 min. Cells were washed twice with FACS buffer, and re-suspended in FACS buffer with propidium iodide (0.5 ug/ml) and analyzed with iQue3 (Sartorius).

human CCR8 [2] = biological target: T7, human CCR8; test: cell-based or functional assay
human CCR8 [3] = biological target: T7, human CCR8; test: cell-based or functional assay; remark: listed apart in the source

binding result (P18A): binds
binding result (F21A): binds
binding result (hCCR8 D2A): no binding (tested: 0.02 ug/ml)
binding result (T11A): binds
binding result (S23A): binds
binding result (T4A): binds
B1: hu.Ab5.H13L1 (antibody, human IgG1, kappa)
heavy: not shown
light: DIQVTQSPSSLSASVGDRVTITCQASENIANALAWYQQKPGKPPKFLIYGASNLASGVPSRFSGSGSGTDFTFTISSLQPEDIATYYCQQAYYGNSFVEGTFGGGTKVEIKRTVAAPSVFIFPPSDEQLKSGTASVVCLLNNFYPREAKVQWKVDNALQSGNSQESVTEQDSKDSTYSLSSTLTLSKADYEKHKVYACEVTHQGLSSPVTKSFNRGEC
notes: fucosylated human IgG1; also called Ab5 variant

Relative EC50 (human CCR8 [1]): 0.88 ratio
Relative MFI (human CCR8 [1]): 0.95 ratio
CCL1 blocking potency IC50, Ca2+ influx (human CCR8 [2]): 57.9 nM
B2: hu.Ab4.H1L1 (antibody, human IgG1, kappa)
heavy: not shown
light: DYQMTQSPSSLSASVGDRVTITCQASQSISSYLSWYQQKPGKRPKLLIYKASTLASGVPSRFSGSGSGTDFTLTISSLQPEDFATYYCQQGYTSSNIDNIFGGGTKVEIKRTVAAPSVFIFPPSDEQLKSGTASVVCLLNNFYPREAKVQWKVDNALQSGNSQESVTEQDSKDSTYSLSSTLTLSKADYEKHKVYACEVTHQGLSSPVTKSFNRGEC
notes: also called hu.Ab4.H1Ll

Ligand Blocking Activity IC50, Ca2+ influx (human CCR8 [3]): 57.9 nM
B3: hu.Ab4.H12L3 (antibody, human IgG1, kappa)
heavy: not shown
light: DYQMTQSPSSLSASVGDRVTITCQASQSISSYLSWYQQKPGKAPKLLIYKASTLASGVPSRFSGSGSGTDFTLTISSLQPEDFATYYCQQGYTSSNIDNIFGGGTKVEIKRTVAAPSVFIFPPSDEQLKSGTASVVCLLNNFYPREAKVQWKVDNALQSGNSQESVTEQDSKDSTYSLSSTLTLSKADYEKHKVYACEVTHQGLSSPVTKSFNRGEC
notes: fucosylated human IgG1; also called huCCR8-Ab4.H12L3.hIgG1; Ab4 variant
